What was measured:
Test in all cases: holdup assay
Set-up in all cases: key: below the threshold = too weak to quantify, mostly under pKd 3.1 to 4
Conditions in all cases: plain residues with an end cap or a label only (N-terminal biotin on a linker: ttds)
RAPGEF6, Q8TEU7 = target: T1, RAPGEF6, Q8TEU7
T1 sequence (Q8TEU7 525-625, limits assumed, looked up): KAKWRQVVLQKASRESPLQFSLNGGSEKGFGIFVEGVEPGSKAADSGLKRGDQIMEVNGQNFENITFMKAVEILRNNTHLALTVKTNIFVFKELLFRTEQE

LNX1_2, Q8TBB1 = target: LNX1_2, Q8TBB1
Chain of LNX1_2, Q8TBB1 (Q8TBB1 371-470): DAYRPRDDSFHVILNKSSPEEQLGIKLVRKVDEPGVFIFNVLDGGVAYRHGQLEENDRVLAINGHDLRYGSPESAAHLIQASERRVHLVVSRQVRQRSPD

Inadl_10, Q8NI35 = target: Inadl_10, Q8NI35
Chain of Inadl_10, Q8NI35 (Q8NI35 1673-1763): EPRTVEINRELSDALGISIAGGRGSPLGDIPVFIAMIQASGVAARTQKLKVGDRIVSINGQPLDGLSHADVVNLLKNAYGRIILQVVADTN

TJP2_1, Q9UDY2 = target: TJP2_1, Q9UDY2
Chain of TJP2_1, Q9UDY2 (Q9UDY2 24-128): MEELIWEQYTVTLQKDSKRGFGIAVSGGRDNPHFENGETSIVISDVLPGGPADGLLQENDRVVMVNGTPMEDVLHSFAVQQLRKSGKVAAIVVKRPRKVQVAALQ

GRIP1_7, Q9Y3R0 = target: T2, GRIP1_7, Q9Y3R0
T2 sequence (Q9Y3R0 999-1096, limits assumed, looked up): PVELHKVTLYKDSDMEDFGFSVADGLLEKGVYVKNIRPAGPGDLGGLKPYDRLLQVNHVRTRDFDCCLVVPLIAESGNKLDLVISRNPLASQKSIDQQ

NHERF4_2, Q86UT5 = target: NHERF4_2, Q86UT5
Chain of NHERF4_2, Q86UT5 (Q86UT5 220-308): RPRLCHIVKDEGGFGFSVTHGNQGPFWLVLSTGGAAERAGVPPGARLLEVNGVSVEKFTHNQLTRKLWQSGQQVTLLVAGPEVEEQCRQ

HTRA3, P83110 = target: T3, HTRA3, P83110
T3 sequence (P83110 354-453, limits assumed, looked up): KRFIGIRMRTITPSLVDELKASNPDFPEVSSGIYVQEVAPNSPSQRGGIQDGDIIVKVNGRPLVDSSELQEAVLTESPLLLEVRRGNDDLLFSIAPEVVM

DLG1_2, Q12959 = target: DLG1_2, Q12959
Chain of DLG1_2, Q12959 (Q12959 314-412): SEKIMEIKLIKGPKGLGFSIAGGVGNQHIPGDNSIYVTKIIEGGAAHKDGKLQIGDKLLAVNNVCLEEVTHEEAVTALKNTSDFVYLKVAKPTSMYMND

DLG3_3, Q92796 = target: T4, DLG3_3, Q92796
T4 sequence (Q92796 374-475, limits assumed, looked up): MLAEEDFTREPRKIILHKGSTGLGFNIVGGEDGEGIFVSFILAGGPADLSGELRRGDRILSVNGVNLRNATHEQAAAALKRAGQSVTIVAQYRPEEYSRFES

LDB3, O75112 = target: LDB3, O75112
Chain of LDB3, O75112 (O75112 1-94): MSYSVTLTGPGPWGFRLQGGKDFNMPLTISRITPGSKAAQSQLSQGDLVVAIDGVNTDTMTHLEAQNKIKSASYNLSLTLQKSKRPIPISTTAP

MAST1, Q9Y2H9 = target: MAST1, Q9Y2H9
Chain of MAST1, Q9Y2H9 (Q9Y2H9 962-1065): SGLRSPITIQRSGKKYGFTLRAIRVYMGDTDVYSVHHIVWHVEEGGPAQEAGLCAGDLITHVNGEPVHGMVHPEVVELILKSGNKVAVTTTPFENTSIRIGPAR

FRMPD3, Q5JV73 = target: FRMPD3, Q5JV73
Chain of FRMPD3, Q5JV73 (Q5JV73 12-100): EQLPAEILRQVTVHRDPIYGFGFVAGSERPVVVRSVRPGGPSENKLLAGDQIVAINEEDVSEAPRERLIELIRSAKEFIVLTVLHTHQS

NHERF3_4, Q5T2W1 = target: T5, NHERF3_4, Q5T2W1
T5 sequence (Q5T2W1 373-468, limits assumed, looked up): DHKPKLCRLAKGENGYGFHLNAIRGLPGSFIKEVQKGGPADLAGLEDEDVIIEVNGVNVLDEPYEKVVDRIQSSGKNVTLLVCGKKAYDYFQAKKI

NHERF2_2, Q15599 = target: NHERF2_2, Q15599
Chain of NHERF2_2, Q15599 (Q15599 142-238): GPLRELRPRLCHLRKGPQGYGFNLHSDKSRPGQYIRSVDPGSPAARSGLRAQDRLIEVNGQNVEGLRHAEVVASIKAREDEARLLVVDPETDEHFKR

MAGI2_4, Q86UL8 = target: MAGI2_4, Q86UL8
Chain of MAGI2_4, Q86UL8 (Q86UL8 772-865): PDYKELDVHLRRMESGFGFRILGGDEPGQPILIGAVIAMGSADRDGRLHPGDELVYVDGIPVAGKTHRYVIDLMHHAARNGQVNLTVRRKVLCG

SNTG2, Q9NY99 = target: T6, SNTG2, Q9NY99
T6 sequence (Q9NY99 68-166, limits assumed, looked up): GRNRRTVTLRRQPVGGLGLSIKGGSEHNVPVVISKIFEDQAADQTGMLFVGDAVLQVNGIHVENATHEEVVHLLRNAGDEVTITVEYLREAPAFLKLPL

APBA1_2, Q02410 = target: T7, APBA1_2, Q02410
T7 sequence (Q02410 742-832, limits assumed, looked up): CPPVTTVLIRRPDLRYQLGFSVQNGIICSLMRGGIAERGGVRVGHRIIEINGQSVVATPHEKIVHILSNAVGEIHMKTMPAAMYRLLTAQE

DFNB31_2, Q9P202 = target: T8, DFNB31_2, Q9P202
T8 sequence (Q9P202 274-371, limits assumed, looked up): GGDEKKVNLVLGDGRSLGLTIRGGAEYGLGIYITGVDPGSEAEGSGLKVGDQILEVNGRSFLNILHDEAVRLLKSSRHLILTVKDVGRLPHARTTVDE

LIN7C, Q9NUP9 = target: T9, LIN7C, Q9NUP9
T9 sequence (Q9NUP9 88-185, limits assumed, looked up): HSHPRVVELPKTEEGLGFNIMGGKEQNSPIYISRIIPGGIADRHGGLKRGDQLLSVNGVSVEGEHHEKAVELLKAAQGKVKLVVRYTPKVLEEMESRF

DLG4_1, P78352 = target: DLG4_1, P78352
Chain of DLG4_1, P78352 (P78352 62-152): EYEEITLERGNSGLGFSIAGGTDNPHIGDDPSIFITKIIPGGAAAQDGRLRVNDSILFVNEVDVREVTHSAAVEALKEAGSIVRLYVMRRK

GIPC2, Q8TF65 = target: GIPC2, Q8TF65
Chain of GIPC2, Q8TF65 (Q8TF65 112-203): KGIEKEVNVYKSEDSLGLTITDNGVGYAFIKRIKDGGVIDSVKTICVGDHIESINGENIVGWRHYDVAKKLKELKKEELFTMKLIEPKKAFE

DLG4_2, P78352 = target: DLG4_2, P78352
Chain of DLG4_2, P78352 (P78352 155-259): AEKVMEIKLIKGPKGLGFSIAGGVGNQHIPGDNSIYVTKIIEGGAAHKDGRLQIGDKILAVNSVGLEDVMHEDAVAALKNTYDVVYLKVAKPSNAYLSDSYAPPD

DLG1_3, Q12959 = target: DLG1_3, Q12959
Chain of DLG1_3, Q12959 (Q12959 457-571): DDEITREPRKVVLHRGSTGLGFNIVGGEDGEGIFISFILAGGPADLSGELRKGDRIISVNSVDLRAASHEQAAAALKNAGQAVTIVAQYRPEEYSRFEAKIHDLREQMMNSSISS

PDLIM1, O00151 = target: PDLIM1, O00151
Chain of PDLIM1, O00151 (O00151 1-87): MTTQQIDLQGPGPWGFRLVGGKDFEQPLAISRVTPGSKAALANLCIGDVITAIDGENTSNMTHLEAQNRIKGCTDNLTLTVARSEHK

GRIP1_5, Q9Y3R0 = target: T10, GRIP1_5, Q9Y3R0
T10 sequence (Q9Y3R0 568-668, limits assumed, looked up): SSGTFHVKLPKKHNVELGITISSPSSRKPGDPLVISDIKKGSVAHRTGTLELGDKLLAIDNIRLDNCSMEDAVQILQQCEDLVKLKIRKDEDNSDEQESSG

MAGI2_2, Q86UL8 = target: MAGI2_2, Q86UL8
Chain of MAGI2_2, Q86UL8 (Q86UL8 410-522): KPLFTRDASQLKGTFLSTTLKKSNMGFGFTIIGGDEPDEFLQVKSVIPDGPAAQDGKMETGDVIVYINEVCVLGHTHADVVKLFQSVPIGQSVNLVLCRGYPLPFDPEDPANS

DLG3_2, Q92796 = target: T11, DLG3_2, Q92796
T11 sequence (Q92796 221-321, limits assumed, looked up): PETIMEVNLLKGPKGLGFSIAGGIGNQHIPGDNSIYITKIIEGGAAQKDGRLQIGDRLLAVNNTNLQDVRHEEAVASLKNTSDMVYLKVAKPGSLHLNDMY

## STLTIFETAL [ABCC4, O15439]
RAPGEF6, Q8TEU7
  pKd: below the threshold
LNX1_2, Q8TBB1
  pKd: below the threshold
Inadl_10, Q8NI35
  pKd: 3.52
TJP2_1, Q9UDY2
  pKd: below the threshold
GRIP1_7, Q9Y3R0
  pKd: below the threshold
NHERF4_2, Q86UT5
  pKd: below the threshold
HTRA3, P83110
  pKd: below the threshold
DLG1_2, Q12959
  pKd: 4.57
DLG3_3, Q92796
  pKd: 3.83
LDB3, O75112
  pKd: below the threshold
MAST1, Q9Y2H9
  pKd: 5.28
FRMPD3, Q5JV73
  pKd: 3.6
NHERF3_4, Q5T2W1
  pKd: 4.78
NHERF2_2, Q15599
  pKd: 5.07
MAGI2_4, Q86UL8
  pKd: 3.54
SNTG2, Q9NY99
  pKd: 4.97
APBA1_2, Q02410
  pKd: 4.03
DFNB31_2, Q9P202
  pKd: below the threshold
LIN7C, Q9NUP9
  pKd: 4.68
DLG4_1, P78352
  pKd: 4.23
GIPC2, Q8TF65
  pKd: below the threshold
DLG4_2, P78352
  pKd: 4.23
DLG1_3, Q12959
  pKd: 4.38
PDLIM1, O00151
  pKd: 3.85
GRIP1_5, Q9Y3R0
  pKd: below the threshold
MAGI2_2, Q86UL8
  pKd: 4.13
DLG3_2, Q92796
  pKd: 4.35

Reference: PMC9482650, “Quantitative fragmentomics allow affinity mapping of interactomes” (Nature Communications, 2022)
